In publication PMC8443317:

Molecular target: recombinant human angiotensin-converting enzyme 2 (ACE2) receptor, biotinylated (human) (UniProt Q9BYF1)
Test: SPR

## SARS-CoV-2 spike S1 variant D614G (domain or fragment)
  Kd: 42.2 nM
  koff: 0.00578 s⁻¹
  kon: 138000 M⁻¹ s⁻¹

## recombinant original SARS-CoV-2 spike S1 protein (domain or fragment)
  Kd: 10.5 nM
